Measured values published in the supplement of paper PMC9112550, “Optimization of the antimicrobial peptide Bac7 by deep mutational scanning” (BMC Biology, 2022).

Tested on: Escherichia coli TOP10
Assay: shrunken log2 fold change of peptide-encoding DNA abundance (4.5 h post-induction vs induction); higher = less antimicrobial activity (less host growth inhibition)
Details: time post-induction: 4.5 h; library: site-saturation at positions 5, 18, 19, 20
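Note: peptides expressed intracellularly from a pBAD plasmid library in pooled LB shake-flask culture, induced with 0.3% L-arabinose, DNA abundance read by NGS, three biological replicates, DESeq2 with apeglm shrinkage.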

Question: Which “shrunken log2 fold change” value does the source give for RRIRSRPPRLPRPRPRPAHRPRP here?
Answer: The value was -0.0259.

Question: For RRIRYRPPRLPRPRPRPTTGPRP, which “shrunken log2 fold change” value is on record?
Answer: The value was -0.549.

Question: RRIRWRPPRLPRPRPRPLAWPRP was tested. Which “shrunken log2 fold change” value did it give?
Answer: Its value is 0.474.

Question: For RRIRVRPPRLPRPRPRPLGFPRP, which “shrunken log2 fold change” value is on record?
Answer: Its value is 0.196.

Question: For RRIRERPPRLPRPRPRPVIEPRP, which “shrunken log2 fold change” value is on record?
Answer: The value was -0.201.

Question: How did the “shrunken log2 fold change” value turn out when RRIRKRPPRLPRPRPRPMWEPRP was run?
Answer: The value was 0.214.

Question: With RRIRLRPPRLPRPRPRPFHTPRP as the sequence, how does the “shrunken log2 fold change” value read?
Answer: The value was -0.00564.

Question: With RRIRERPPRLPRPRPRPRNVPRP as the sequence, how does the “shrunken log2 fold change” value read?
Answer: The value was -0.00139.

Question: With RRIRTRPPRLPRPRPRPEYHPRP as the sequence, how does the “shrunken log2 fold change” value read?
Answer: The value was -0.00732.

Question: With RRIRTRPPRLPRPRPRPSACPRP as the sequence, how does the “shrunken log2 fold change” value read?
Answer: The value was -0.277.

Question: RRIRKRPPRLPRPRPRPDPWPRP was tested. Which “shrunken log2 fold change” value did it give?
Answer: Its value is 0.422.

Question: Which “shrunken log2 fold change” value does the source give for RRIRERPPRLPRPRPRPPCLPRP here?
Answer: Its value is -0.579.

Question: Which “shrunken log2 fold change” value does the source give for RRIRCRPPRLPRPRPRPSGTPRP here?
Answer: Its value is -0.0132.

Question: Which “shrunken log2 fold change” value does the source give for RRIRTRPPRLPRPRPRPPTLPRP here?
Answer: The value was 0.0694.

Question: RRIRFRPPRLPRPRPRPAQDPRP was tested. Which “shrunken log2 fold change” value did it give?
Answer: Its value is 0.381.

Question: Which “shrunken log2 fold change” value does the source give for RRIRGRPPRLPRPRPRPDHLPRP here?
Answer: The value was 0.117.

Question: RRIRTRPPRLPRPRPRPYDRPRP was tested. Which “shrunken log2 fold change” value did it give?
Answer: Its value is -0.221.

Question: How did the “shrunken log2 fold change” value turn out when RRIRYRPPRLPRPRPRPLANPRP was run?
Answer: Its value is -0.371.

Question: How did the “shrunken log2 fold change” value turn out when RRIRIRPPRLPRPRPRPCLWPRP was run?
Answer: The value was 0.0796.

Question: RRIRIRPPRLPRPRPRPQIPPRP was tested. Which “shrunken log2 fold change” value did it give?
Answer: Its value is -0.216.

Question: Which “shrunken log2 fold change” value does the source give for RRIRMRPPRLPRPRPRPWGGPRP here?
Answer: The value was 0.414.

Question: How did the “shrunken log2 fold change” value turn out when RRIRTRPPRLPRPRPRPGWRPRP was run?
Answer: The value was 0.69.

Question: Which “shrunken log2 fold change” value does the source give for RRIRNRPPRLPRPRPRPMCDPRP here?
Answer: Its value is -0.386.

Question: For RRIRRRPPRLPRPRPRPAHYPRP, which “shrunken log2 fold change” value is on record?
Answer: Its value is 0.445.

Question: RRIRHRPPRLPRPRPRPMADPRP was tested. Which “shrunken log2 fold change” value did it give?
Answer: Its value is 0.0417.

Question: For RRIRTRPPRLPRPRPRPKFFPRP, which “shrunken log2 fold change” value is on record?
Answer: The value was -0.00469.

Question: With RRIRERPPRLPRPRPRPDYEPRP as the sequence, how does the “shrunken log2 fold change” value read?
Answer: The value was -0.202.

Question: RRIRIRPPRLPRPRPRPPSDPRP was tested. Which “shrunken log2 fold change” value did it give?
Answer: The value was -0.101.

Question: Which “shrunken log2 fold change” value does the source give for RRIRVRPPRLPRPRPRPRIHPRP here?
Answer: The value was -0.219.

Question: With RRIRSRPPRLPRPRPRPKCLPRP as the sequence, how does the “shrunken log2 fold change” value read?
Answer: Its value is 0.0157.

Question: Which “shrunken log2 fold change” value does the source give for RRIRSRPPRLPRPRPRPTAPPRP here?
Answer: Its value is 0.317.

Question: RRIRDRPPRLPRPRPRPVSPPRP was tested. Which “shrunken log2 fold change” value did it give?
Answer: The value was -0.134.

Question: Which “shrunken log2 fold change” value does the source give for RRIRYRPPRLPRPRPRPDVIPRP here?
Answer: The value was -0.0708.

Question: With RRIRTRPPRLPRPRPRPGSTPRP as the sequence, how does the “shrunken log2 fold change” value read?
Answer: Its value is 0.857.

Question: Which “shrunken log2 fold change” value does the source give for RRIRFRPPRLPRPRPRPTIMPRP here?
Answer: The value was -0.375.

Question: For RRIRERPPRLPRPRPRPAWIPRP, which “shrunken log2 fold change” value is on record?
Answer: Its value is 0.121.

Question: Which “shrunken log2 fold change” value does the source give for RRIRQRPPRLPRPRPRPGIEPRP here?
Answer: The value was -0.113.

Question: RRIRTRPPRLPRPRPRPWIQPRP was tested. Which “shrunken log2 fold change” value did it give?
Answer: The value was -0.194.

Question: RRIRNRPPRLPRPRPRPNETPRP was tested. Which “shrunken log2 fold change” value did it give?
Answer: Its value is -0.0424.

Question: Which “shrunken log2 fold change” value does the source give for RRIRVRPPRLPRPRPRPNRTPRP here?
Answer: Its value is 0.0905.

Question: RRIRHRPPRLPRPRPRPCINPRP was tested. Which “shrunken log2 fold change” value did it give?
Answer: Its value is -0.306.

Question: Which “shrunken log2 fold change” value does the source give for RRIRPRPPRLPRPRPRPTRGPRP here?
Answer: The value was 0.543.

Question: How did the “shrunken log2 fold change” value turn out when RRIRTRPPRLPRPRPRPSGVPRP was run?
Answer: Its value is 0.00112.

Question: For RRIRERPPRLPRPRPRPVQIPRP, which “shrunken log2 fold change” value is on record?
Answer: Its value is 0.27.

Question: Which “shrunken log2 fold change” value does the source give for RRIRSRPPRLPRPRPRPSPAPRP here?
Answer: Its value is 0.242.

Question: How did the “shrunken log2 fold change” value turn out when RRIRPRPPRLPRPRPRPINAPRP was run?
Answer: Its value is -0.292.

Question: For RRIRCRPPRLPRPRPRPMQQPRP, which “shrunken log2 fold change” value is on record?
Answer: Its value is -0.036.

Question: Which “shrunken log2 fold change” value does the source give for RRIRPRPPRLPRPRPRPMCRPRP here?
Answer: Its value is -0.263.

Question: How did the “shrunken log2 fold change” value turn out when RRIRYRPPRLPRPRPRPYHQPRP was run?
Answer: The value was -0.662.

Question: Which “shrunken log2 fold change” value does the source give for RRIRQRPPRLPRPRPRPQKRPRP here?
Answer: The value was -0.354.

Question: How did the “shrunken log2 fold change” value turn out when RRIRQRPPRLPRPRPRPYVPPRP was run?
Answer: The value was -0.157.

Question: For RRIRIRPPRLPRPRPRPINCPRP, which “shrunken log2 fold change” value is on record?
Answer: Its value is -0.0883.

Question: RRIRQRPPRLPRPRPRPYLRPRP was tested. Which “shrunken log2 fold change” value did it give?
Answer: The value was -0.176.

Question: Which “shrunken log2 fold change” value does the source give for RRIRCRPPRLPRPRPRPEDWPRP here?
Answer: The value was 0.595.

Question: RRIRQRPPRLPRPRPRPWVKPRP was tested. Which “shrunken log2 fold change” value did it give?
Answer: Its value is 0.0219.

Question: For RRIRDRPPRLPRPRPRPFWNPRP, which “shrunken log2 fold change” value is on record?
Answer: Its value is -0.28.

Question: RRIRVRPPRLPRPRPRPARNPRP was tested. Which “shrunken log2 fold change” value did it give?
Answer: Its value is 0.414.

Question: Which “shrunken log2 fold change” value does the source give for RRIRERPPRLPRPRPRPICFPRP here?
Answer: The value was -0.221.

Question: Which “shrunken log2 fold change” value does the source give for RRIRYRPPRLPRPRPRPKVEPRP here?
Answer: The value was -0.157.

Question: For RRIRPRPPRLPRPRPRPRCCPRP, which “shrunken log2 fold change” value is on record?
Answer: Its value is 0.119.

Question: Which “shrunken log2 fold change” value does the source give for RRIRSRPPRLPRPRPRPNWAPRP here?
Answer: The value was 0.64.

Question: Which “shrunken log2 fold change” value does the source give for RRIRRRPPRLPRPRPRPYLEPRP here?
Answer: The value was -0.298.

Question: For RRIRYRPPRLPRPRPRPCNNPRP, which “shrunken log2 fold change” value is on record?
Answer: Its value is -0.331.

Question: Which “shrunken log2 fold change” value does the source give for RRIRRRPPRLPRPRPRPYYAPRP here?
Answer: Its value is -0.561.

Question: For RRIRSRPPRLPRPRPRPGNEPRP, which “shrunken log2 fold change” value is on record?
Answer: The value was -0.183.

Question: RRIRMRPPRLPRPRPRPMGIPRP was tested. Which “shrunken log2 fold change” value did it give?
Answer: Its value is -0.0393.

Question: With RRIRHRPPRLPRPRPRPSWEPRP as the sequence, how does the “shrunken log2 fold change” value read?
Answer: Its value is -0.0671.

Question: Which “shrunken log2 fold change” value does the source give for RRIRIRPPRLPRPRPRPYHNPRP here?
Answer: Its value is -1.25.

Question: RRIRCRPPRLPRPRPRPDLKPRP was tested. Which “shrunken log2 fold change” value did it give?
Answer: The value was -0.257.

Question: How did the “shrunken log2 fold change” value turn out when RRIRYRPPRLPRPRPRPVQFPRP was run?
Answer: Its value is -0.00142.

Question: With RRIRFRPPRLPRPRPRPAPRPRP as the sequence, how does the “shrunken log2 fold change” value read?
Answer: Its value is 0.84.

Question: Which “shrunken log2 fold change” value does the source give for RRIRRRPPRLPRPRPRPVCRPRP here?
Answer: Its value is 0.562.

Question: Which “shrunken log2 fold change” value does the source give for RRIRKRPPRLPRPRPRPAILPRP here?
Answer: The value was 0.0725.

Question: Which “shrunken log2 fold change” value does the source give for RRIRKRPPRLPRPRPRPDHDPRP here?
Answer: The value was 0.0562.

Question: RRIRMRPPRLPRPRPRPFCVPRP was tested. Which “shrunken log2 fold change” value did it give?
Answer: Its value is 0.00978.

Question: With RRIRFRPPRLPRPRPRPWRWPRP as the sequence, how does the “shrunken log2 fold change” value read?
Answer: The value was 0.0911.

Question: How did the “shrunken log2 fold change” value turn out when RRIRLRPPRLPRPRPRPPMMPRP was run?
Answer: Its value is -0.149.

Question: How did the “shrunken log2 fold change” value turn out when RRIRFRPPRLPRPRPRPIKDPRP was run?
Answer: The value was -0.234.

Question: For RRIRLRPPRLPRPRPRPEFFPRP, which “shrunken log2 fold change” value is on record?
Answer: Its value is 0.02.

Question: RRIRNRPPRLPRPRPRPLWGPRP was tested. Which “shrunken log2 fold change” value did it give?
Answer: The value was -0.192.

Question: With RRIRYRPPRLPRPRPRPERPPRP as the sequence, how does the “shrunken log2 fold change” value read?
Answer: The value was 0.232.

Question: For RRIRIRPPRLPRPRPRPELLPRP, which “shrunken log2 fold change” value is on record?
Answer: Its value is -0.0102.

Question: For RRIRARPPRLPRPRPRPPSTPRP, which “shrunken log2 fold change” value is on record?
Answer: The value was 0.563.

Question: RRIRWRPPRLPRPRPRPLVAPRP was tested. Which “shrunken log2 fold change” value did it give?
Answer: Its value is 0.815.

Question: RRIRDRPPRLPRPRPRPGNGPRP was tested. Which “shrunken log2 fold change” value did it give?
Answer: The value was 0.12.

Question: RRIRGRPPRLPRPRPRPDSWPRP was tested. Which “shrunken log2 fold change” value did it give?
Answer: The value was 0.627.

Question: Which “shrunken log2 fold change” value does the source give for RRIRSRPPRLPRPRPRPKWKPRP here?
Answer: Its value is -0.0184.

Question: For RRIRCRPPRLPRPRPRPFSGPRP, which “shrunken log2 fold change” value is on record?
Answer: Its value is -0.275.

Question: For RRIRHRPPRLPRPRPRPKDMPRP, which “shrunken log2 fold change” value is on record?
Answer: Its value is -0.282.

Question: Which “shrunken log2 fold change” value does the source give for RRIRNRPPRLPRPRPRPNLKPRP here?
Answer: Its value is -0.33.

Question: With RRIRHRPPRLPRPRPRPPQCPRP as the sequence, how does the “shrunken log2 fold change” value read?
Answer: The value was 0.178.
